± gives the uncertainty stated by the source.
assay: amyloid nucleation score (Sup35N fusion, yeast selection) (log enrichment); library NNK3; higher = more nucleation; inactive = no reads after selection
Outline: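 Growth for 7 days at 30°C on medium lacking adenine and uracil followed a 24-hour induction with 100 μM copper sulfate of psi-negative yeast expressing peptides of 20 random codons fused to Sup35N. Input and output plasmid inserts were sequenced with Illumina, and sequences with under 100 input reads were excluded. Nucleation score is the DiMSum log enrichment of output over input reads, centred on the mode score of non-aggregating sequences.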

Amyloid nucleation score, 0.66 ± 0.23:
SVDCYCTKKTYMQWSGSVRH

Amyloid nucleation score, 0.745 ± 0.13:
TCNKLIVRLCDAHKERA

Amyloid nucleation score, 2.1 ± 0.098:
TIFGDCAEYSYVVLFINLFI

Amyloid nucleation score, 0.823 ± 0.17:
SYRVCMCSTLVVVVSSRGLS

Amyloid nucleation score, 0.254 ± 0.82:
SWNVFFFSGFRVPYYALTGV

Amyloid nucleation score, 0.709 ± 0.19:
TKFNG

Amyloid nucleation score, -0.297 ± 0.88:
THLCIEMLRM

Amyloid nucleation score, 1.36 ± 0.077:
TDFMSFINVERMCVILYPFA

Amyloid nucleation score, 0.758 ± 0.28:
TCCVIICEFLRRMVSAQSSL

Amyloid nucleation score, -0.208 ± 0.6:
SVQLGIKNVITLRSYVYKTW

Amyloid nucleation score, 0.36 ± 0.49:
TEYFSRCRF

Amyloid nucleation score, 1.02 ± 0.17:
SVLHLWGLDYFNGEYTMRKG

Amyloid nucleation score, 0.784 ± 0.24:
TAFNHRMPGDLWRDDGGARV

Amyloid nucleation score, -0.078 ± 0.54:
SVMMVMEEFFQWGLKVNMRT

Amyloid nucleation score, 1.41 ± 0.14:
TAVWRFATSGKFFYSQSLGM

Amyloid nucleation score, 0.574 ± 0.24:
SYKSLNCALFLQ

Amyloid nucleation score, 0.612 ± 0.44:
TAIYIDRNECSLKVYRIKDK

Amyloid nucleation score, inactive:
SVDEVRCTCVYSCGVWPGGC
SVDYQGYNGKKYLFTISLRC
SVFFYKYQALIRNEGEK
SVFRDSRPLLYDVNMVNGGG
SVIAMYQFVYYYVSKMVNID
SVLVDY
SVNSGVMIAEPDLRWCGSAT
SVPDCELVAYKSSLWCTHLT
SVRRYRSYLVLRRRTGHDRN
SVRYTV
SVSFFAF
SVSVVKSSEILSSMGPCGGT
SVVAYFLLIRYGDYRYHLQM
SVVQIHAERYE
SWDHTVNKLGTPTVGSGSND
SWKVTMKPGNFWV
SWNRGNLTM
SWYYLQFIFMDFMINFCVME
SYCKATRSVRQSNSARVVVR
SYCWRVSHGEYH
SYEAF
SYFRRIRWQLEEHLLLLWR
SYFVAAVYYQDERNNGFCGQ
SYGQSCCQDTGLSRNALMQ
SYHYFGRYCGFR
SYLESISHPALESARVYVST
SYMPGNLSGLWAHLLMEKNC
SYNDSLCLDVQTIYPLHSPS
SYNILHDVSQLGTRQPPLE
SYQDMLSYNRMR
SYQWWLCFFSLFFIGGDFRT
SYRIRCYAVNITPIAMYIIC
SYRYNRLYHWVHDLLCSTLV
SYVVRLMSLVAWN
TAALRIDDQRKAYLGVPRFS
TACQNDCVGG
TARVMILP
TATLAC
TCFESLGLDVPIPYNRWVRS
TCMSVNVFRGYIIAW
TCNYMSGGFALRFTISYGGA
TCSHIIPYWYGVRNSQVRYS
TCSKPGSSSMHSAVGKTMSA
TCSVTEMVTL
TCSYKSC
TCWCGVRIFFGPQLASSVWL
TDFTYSLTFVYKLGEKTVDI
TDGYFYDRSSVERSL
TDISLCNLGKHKVLRGL
TDVLELVSTHCRYGFSVPQP
TDWYVIF
TEGKAVSEV
TEMMTFGFSGVMFVRVMFWL
TERYATNSLCSGIKMALRQV
TEVFVHFTCEIGYIFLILFQ
TEYCIYFLEV
TFFNFVDGTSVWRFAGRHIY
TFFTGKIRNKAVFEDSSYCK
TFKLD
TFMPIGLNL
TFRFLSRLSRTLWAFSKGLC
TFSDVGLFYLTQYDKVPFDL
TFSYGSFLRSYLLMC
TFVLRDTDVCKCSSYKRPNF
TGGRAPHRCVYSD
TGIYAF
TGRAFIIPVHAFRYDSVVGV
TGSVVYLKRDVPAIFKFLLV
TGWSWISLYWLCSNMVIVNR
THDSMHKCERMITPRGGCQQ
THDVFSSVMLGSFSLSSTTN
THISQNLQSVVHLYVLRKVV
THRFGMVR
THSGQEEWLVNKDAS
THTSAKDHRVDWLSQL
TIEFWGRVAGFLLM
TIIMR
TIMETALDLSMHPMNVH
TIPYFQYDVFHKEDNWTGML
TIVNGNVEFGMKLEWEHGCI
TKADEHYESIYTLCCHFVSP
TKCNDYFNVSRYSSLDS
TKDGHYA
TKDIMHTSSLVRWTHREAWC
TKHETSLVCRLLTETRFKNI
TKNDRN
TKSRIWG
TLALSKSMMYQMVINPAIY

Amyloid nucleation score, -0.023 ± 1:
TICLSRVTYVSRQEWGSASV

Amyloid nucleation score, 2.29 ± 0.059:
THCFNYILYSCSRAQSSCKY

Amyloid nucleation score, 2.64 ± 0.054:
TFLKGSLFCCYYTRDAVDYI

Amyloid nucleation score, -0.541 ± 0.55:
TERESMCFLYWVSRRHYTGN

Amyloid nucleation score, 0.088 ± 0.73:
SVSLCFYFGIDYRILLMPEN

Amyloid nucleation score, 1.81 ± 0.058:
SVNIMVMTVMNY

Amyloid nucleation score, 0.444 ± 0.46:
TCSLFFSYPYIGRQHGCGRY

Amyloid nucleation score, 2.06 ± 0.085:
SWLFGLCYF

Amyloid nucleation score, 0.671 ± 0.15:
TALGSDMTYITARRI

Amyloid nucleation score, -0.075 ± 0.26:
TCCICIMSSYRLGRNLLIEL

Amyloid nucleation score, 1.87 ± 0.073:
TCCLIF

Amyloid nucleation score, -0.084 ± 0.3:
TDYLFLSKWVTLCLSVWCNY

Amyloid nucleation score, 2.37 ± 0.076:
SYAPKMSIRGMNFKTVMVFL

Amyloid nucleation score, -0.378 ± 0.84:
SWGQVGYIEFFIGSSCHVS

Source: the supplement of paper PMC12042874
